Data as given in US20250215412A1 (NOVOZYMES A S, published 2025).

Legend:
Test in all cases: cell-based or functional assay
[1] = biological target: T1, Chryseobacterium sp-62563 deamidase polypeptide (second polypeptide, deamidase domain), wildtype (Chryseobacterium sp-62563)
T1 chain: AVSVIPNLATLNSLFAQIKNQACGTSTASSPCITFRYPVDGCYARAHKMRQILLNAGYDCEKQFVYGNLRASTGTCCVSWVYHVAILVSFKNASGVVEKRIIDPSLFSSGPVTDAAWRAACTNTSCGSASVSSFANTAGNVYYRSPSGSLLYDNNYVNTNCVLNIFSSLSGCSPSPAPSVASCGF

[2] = biological target: T1, Chryseobacterium sp-62563 deamidase …
[3] = biological target: T2, Chryseobacterium sp-62563 deamidase V190P (Chryseobacterium sp-62563)
T2 chain: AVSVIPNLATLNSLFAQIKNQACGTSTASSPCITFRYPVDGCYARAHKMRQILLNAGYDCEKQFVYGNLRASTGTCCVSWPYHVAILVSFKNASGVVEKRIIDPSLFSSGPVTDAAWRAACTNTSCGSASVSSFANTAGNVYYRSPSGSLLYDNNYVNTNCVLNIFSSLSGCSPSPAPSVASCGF

[4] = biological target: T3, Chryseobacterium sp-62563 deamidase S258E (Chryseobacterium sp-62563)
T3 chain: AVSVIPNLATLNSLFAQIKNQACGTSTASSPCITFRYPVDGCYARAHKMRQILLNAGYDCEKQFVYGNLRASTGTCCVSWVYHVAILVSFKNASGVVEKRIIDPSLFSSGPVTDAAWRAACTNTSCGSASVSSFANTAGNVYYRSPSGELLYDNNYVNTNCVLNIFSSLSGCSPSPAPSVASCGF

[5] = biological target: T4, Chryseobacterium sp-62563 deamidase V190M (Chryseobacterium sp-62563)
T4 chain: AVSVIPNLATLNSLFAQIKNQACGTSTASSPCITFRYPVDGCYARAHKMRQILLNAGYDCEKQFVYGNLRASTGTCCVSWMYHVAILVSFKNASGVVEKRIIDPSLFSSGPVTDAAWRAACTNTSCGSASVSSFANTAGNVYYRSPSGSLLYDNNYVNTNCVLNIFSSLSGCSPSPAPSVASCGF

[6] = biological target: T5, Chryseobacterium sp-62563 deamidase V190Y (Chryseobacterium sp-62563)
T5 chain: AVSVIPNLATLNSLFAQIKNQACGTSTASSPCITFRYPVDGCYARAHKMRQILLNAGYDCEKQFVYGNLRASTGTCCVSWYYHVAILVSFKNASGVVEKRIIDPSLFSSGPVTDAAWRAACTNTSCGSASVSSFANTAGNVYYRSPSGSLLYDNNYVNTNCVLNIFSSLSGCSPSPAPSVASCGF

[7] = biological target: T6, Chryseobacterium sp-62563 deamidase L259P (Chryseobacterium sp-62563)
T6 chain: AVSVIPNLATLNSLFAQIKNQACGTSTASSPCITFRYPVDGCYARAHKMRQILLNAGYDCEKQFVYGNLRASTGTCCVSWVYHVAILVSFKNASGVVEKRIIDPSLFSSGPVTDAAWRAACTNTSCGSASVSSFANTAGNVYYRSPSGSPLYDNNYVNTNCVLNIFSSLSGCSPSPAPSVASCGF

[8] = biological target: T7, Chryseobacterium sp-62563 deamidase V190G (Chryseobacterium sp-62563)
T7 chain: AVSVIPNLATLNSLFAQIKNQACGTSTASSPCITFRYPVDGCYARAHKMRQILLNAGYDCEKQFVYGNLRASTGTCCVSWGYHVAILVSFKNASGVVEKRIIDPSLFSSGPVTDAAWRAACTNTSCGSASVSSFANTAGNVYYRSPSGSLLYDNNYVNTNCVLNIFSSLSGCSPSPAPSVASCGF

[9] = biological target: T8, Chryseobacterium sp-62563 deamidase V190Q (Chryseobacterium sp-62563)
T8 chain: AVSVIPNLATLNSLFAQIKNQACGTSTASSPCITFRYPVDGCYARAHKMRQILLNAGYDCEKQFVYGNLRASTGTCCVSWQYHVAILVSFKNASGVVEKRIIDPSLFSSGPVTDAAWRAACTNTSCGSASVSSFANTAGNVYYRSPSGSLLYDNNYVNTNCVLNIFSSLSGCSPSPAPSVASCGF

[10] = biological target: T2, Chryseobacterium sp-62563 deamidase …
[11] = biological target: T9, Chryseobacterium sp-62563 deamidase P255D (Chryseobacterium sp-62563)
T9 chain: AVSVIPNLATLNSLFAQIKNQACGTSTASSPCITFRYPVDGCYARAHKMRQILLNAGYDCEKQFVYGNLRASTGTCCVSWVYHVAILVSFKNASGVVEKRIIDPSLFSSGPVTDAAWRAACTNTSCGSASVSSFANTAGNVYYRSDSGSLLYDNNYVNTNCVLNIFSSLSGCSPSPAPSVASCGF

[12] = biological target: T10, Chryseobacterium sp-62563 deamidase V190A (Chryseobacterium sp-62563)
T10 chain: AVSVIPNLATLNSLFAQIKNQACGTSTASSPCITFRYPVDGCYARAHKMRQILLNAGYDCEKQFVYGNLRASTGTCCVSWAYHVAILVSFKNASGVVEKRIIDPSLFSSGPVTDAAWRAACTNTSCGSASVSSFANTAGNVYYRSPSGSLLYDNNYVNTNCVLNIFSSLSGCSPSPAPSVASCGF

[13] = biological target: T3, Chryseobacterium sp-62563 deamidase …
[14] = biological target: T4, Chryseobacterium sp-62563 deamidase …
[15] = biological target: T11, Chryseobacterium sp-62563 deamidase S256D (Chryseobacterium sp-62563)
T11 chain: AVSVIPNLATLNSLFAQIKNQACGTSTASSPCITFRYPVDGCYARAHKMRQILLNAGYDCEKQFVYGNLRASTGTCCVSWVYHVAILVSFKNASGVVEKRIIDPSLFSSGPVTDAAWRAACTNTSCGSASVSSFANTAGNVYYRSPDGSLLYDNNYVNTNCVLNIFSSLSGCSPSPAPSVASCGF

NanoDSF thermal unfolding temperature [1]: 85.3 ° C. | Relative activity of maturated deamidase [2]: < 20 % initial rate | Relative activity of maturated deamidase [3]: 32 % initial rate | Relative activity of maturated deamidase [4]: ≥ 100 % initial rate | Relative activity of maturated deamidase [5]: 44 % initial rate | NanoDSF thermal unfolding temperature [6]: 81.5 ° C. | NanoDSF thermal unfolding temperature [7]: 80 ° C. | NanoDSF thermal unfolding temperature [8]: 78 ° C. | NanoDSF thermal unfolding temperature [9]: 75.8 ° C. | NanoDSF thermal unfolding temperature [10]: 74.9 ° C. | NanoDSF thermal unfolding temperature [11]: 81.4 ° C. | NanoDSF thermal unfolding temperature [12]: 68.6 ° C. | NanoDSF thermal unfolding temperature [13]: 78.3 ° C. | NanoDSF thermal unfolding temperature [14]: 82 ° C. | NanoDSF thermal unfolding temperature [15]: 81.5 ° C.
B1: Chryseobacterium sp-62563 propeptide (first polypeptide, propeptide domain), wildtype (other)
chain: NQDPNLVAKESNETAMKDFGKTVPVGIEKEDGKFKISFMVTAQPYEIKDSKENAAYISMIKTAVENETPIHVFLKANTNEIAKVDKATDDDIRYFKSVFTKEVKEENRK
